Columns and labels:
[1] = biological target: murine neonatal Fc receptor (FcRn), extracellular domain (murine | not stated) (UniProt Q61559); assay: SPR; FcRn extracellular domain immobilised on a CM5 chip (600 RU); Fc fusions injected; McIlvaine's phosphate-citrate buffer pH 6.0 with 0.05% Tween 20, 25 °C, 50 μL/min; Biacore 3000; bivalent analyte model (KD1)
[2] = biological target: mouse PRYSPRY-domain of TRIM21 (tripartite-motif containing protein 21) (mouse); assay: SPR; TRIM21 PRYSPRY-domain immobilised on a CM5 chip (200 RU); Fc fusions injected; HBS-EP pH 7.4 (0.01 M HEPES, 0.15 M NaCl, 3 mM EDTA, 0.05% Tween 20), 25 °C, 50 μL/min; Biacore 3000; bivalent analyte model (KD1)

Chain of UniProt Q61559 (Q61559 whole entry, looked up, the tested form may be a part): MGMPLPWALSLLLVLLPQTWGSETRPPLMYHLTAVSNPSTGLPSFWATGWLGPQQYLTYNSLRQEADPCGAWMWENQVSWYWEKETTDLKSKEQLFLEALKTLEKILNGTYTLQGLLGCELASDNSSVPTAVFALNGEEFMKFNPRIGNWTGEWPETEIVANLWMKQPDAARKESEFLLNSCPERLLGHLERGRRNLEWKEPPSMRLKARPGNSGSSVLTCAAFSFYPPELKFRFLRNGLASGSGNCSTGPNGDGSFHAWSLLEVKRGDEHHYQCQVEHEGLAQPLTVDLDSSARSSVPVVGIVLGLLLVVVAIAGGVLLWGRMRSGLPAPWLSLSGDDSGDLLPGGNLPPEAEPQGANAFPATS

Question: What does the source list for “Fc-ARP1 fusion protein (mouse IgG1 Fc fused to the anti-rotavirus VHH ARP1) (Fc fusion)”?
Answer: Kd [1]: 760 nM; Kd [2]: 28 nM
